Assay results from paper PMC117612 (Molecular Biology of the Cell, 2002).

Biological target: the molecule itself
Assay: SDS-PAGE under nonreducing and reducing conditions with Western blot

B1: murine TSP2 secreted by dermal fibroblasts (conditioned medium) (natural protein)
chain: not shown
stoichiometry N: 3
